The results in this text go back to EP1736482A1 (INSERM (Institut National de la Santé et de la Recherche …, dated 2006).

For the test, the target named is T1, recombinant human 4-1BB-Fc chimera (R&D Systems) (human, UniProt Q07011 24-186).
T1 construct: Bought; Covalently coupled to a CM5 chip at 500 resonance units; also called 4-IBB-Fc; recombinant 4-1BB; Fc part of the bought chimera not given, not described
The test is described as follows: SPR (BIAcore 2000), 4-1BB-Fc coupled to CM5 chip, ligand in flow, 25°C. For orientation: Surface plasmon resonance follows binding to a sensor surface in real time, without labels.

B1: FLAG-4-1BBL (Alexis), FLAG peptide coupled to the TNF homology domain of human 4-1BBL through an undefined 11 aa linker (ligand, UniProt P41273 93-254, looked up)
chain: AQLVAQNVLLIDGPLSWYSDPGLAGVSLTGGLSYKEDTKELVVAKAGVYYVFFQLELRRVVAGEGSGSVSLALHLQPLRSAAGAAALALTVDLPPASSEARNSAFGFQGRLLHLSAGQRLGVHLHTEARARHAWQLTQGATVLGLFRVTPEIPAGLPSPRSE
notes: domain: TNF homology domain (THD); Bought from Alexis, produced in HEK293; also called FLAG-tagged 4-1BBL; soluble FLAG-4-1BBL; not shown: FLAG peptide (8aa); undefined 11aa linker
One may read the Kd as the constant that tells how readily two partners part at equilibrium. By koff is commonly meant a measure of how fast the partners let go of each other. As usually defined, the kon is the second-order rate constant of association. Regarding B1, the equilibrium dissociation constant (Kd) came out at 55.2 nM, the “fold lower association rate (kon) against WT AviTag-4-1BBL” value was 30 fold, the koff was found to be 0.00037 s⁻¹ and the kon came to 6700 M⁻¹ s⁻¹.
